Earlier results as cited in patent publication US20170173060A1, “ACTIVATION OF THE ENDOGENOUS ILEAL BRAKE HORMONE PATHWAY FOR ORGAN REGENERATION AND RELATED COMPOSITIONS, METHODS OF TREATMENT, DIAGNOSTICS, AND REGULATORY SYSTEMS” (VOLANT HOLDINGS GMBH, priority 2014, published 2017).

Assays:
[1] = tested on: severely streptozotocin-diabetic rats; conditions: rat, in vivo
MIN-6 cells = conditions: immunoprecipitation and western blotting

B1: EGF (protein, UniProt P01133 23-1207, looked up)
Pro-epidermal growth factor: PQHWSCPEGTLAGNGNSTCVGPAPFLIFSHGNSIFRIDTEGTNYEQLVVDAGVSVIMDFHYNEKRIYWVDLERQLLQRVFLNGSRQERVCNIEKNVSGMAINWINEEVIWSNQQEGIITVTDMKGNNSHILLSALKYPANVAVDPVERFIFWSSEVAGSLYRADLDGVGVKALLETSEKITAVSLDVLDKRLFWIQYNREGSNSLICSCDYDGGSVHISKHPTQHNLFAMSLFGDRIFYSTWKMKTIWIANKHTGKDMVRINLHSSFVPLGELKVVHPLAQPKAEDDTWEPEQKLCKLRKGNCSSTVCGQDLQSHLCMCAEGYALSRDRKYCEDVNECAFWNHGCTLGCKNTPGSYYCTCPVGFVLLPDGKRCHQLVSCPRNVSECSHDCVLTSEGPLCFCPEGSVLERDGKTCSGCSSPDNGGCSQLCVPLSPVSWECDCFPGYDLQLDEKSCAASGPQPFLLFANSQDIRHMHFDGTDYGTLLSQQMGMVYALDHDPVENKIYFAHTALKWIERANMDGSQRERLIEEGVDVPEGLAVDWIGRRFYWTDRGKSLIGRSDLNGKRSKIITKENISQPRGIAVHPMAKRLFWTDTGINPRIESSSLQGLGRLVIASSDLIWPSGITIDFLTDKLYWCDAKQSVIEMANLDGSKRRRLTQNDVGHPFAVAVFEDYVWFSDWAMPSVMRVNKRTGKDRVRLQGSMLKPSSLVVVHPLAKPGADPCLYQNGGCEHICKKRLGTAWCSCREGFMKASDGKTCLALDGHQLLAGGEVDLKNQVTPLDILSKTRVSEDNITESQHMLVAEIMVSDQDDCAPVGCSMYARCISEGEDATCQCLKGFAGDGKLCSDIDECEMGVPVCPPASSKCINTEGGYVCRCSEGYQGDGIHCLDIDECQLGEHSCGENASCTNTEGGYTCMCAGRLSEPGLICPDSTPPPHLREDDHHYSVRNSDSECPLSHDGYCLHDGVCMYIEALDKYACNCVVGYIGERCQYRDLKWWELRHAGHGQQQKVIVVAVCVVVLVMLLLLSLWGAHYYRTQKLLSKNPKNPYEESSRDVRSRRPADTEDGMSSCPQPWFVVIKEHQDLKNGGQPVAGEDGQAADGSMQPTSWRQEPQLCGMGTEQGCWIPVSSDKGSCPQVMERSFHMPSYGTQTLEGGVEKPHSLLSANPLWQQRALDPPHQMELTQ
modifications: Pro-epidermal growth factor
In the case of B1, the glucose tolerance [1] is listed as “neither gastrin nor EGF alone improved glucose tolerance”.

B2: Betacellulin (protein, UniProt P35070 32-111, looked up)
Betacellulin: DGNSTRSPETNGLLCGDPEENCAATTTQSKRKGHFSRCPKQYKHYCIKGRCRFVVAEQTPSCVCDEGYIGARCERVDLFY
modifications: Betacellulin
notes: member of the epidermal growth factor family
For B2, the “phosphorylation of EGF receptors (ErbBs)” value (MIN-6 cells) is listed as “induced phosphorylation of only ErbB-1 and ErbB-2”.
